Measurements reported in US20260242478A1 (published 2026).

How the values were obtained:
Peptide-126 = target: T1, Peptide-126; experiment: BLI (Octet), biotinylated peptide on sensor, Fab in solution
T1 peptide: YCEGHLPEYREKCL

Peptide-87 [1] = target: T2, Peptide-87; experiment: as above
T2 peptide: YCAGHAWQYINKCL

Peptide-127 = target: T3, Peptide-127; experiment: as above
T3 peptide: YCEGHLPEYLAKCL

Peptide-135 = target: T4, Peptide-135; experiment: as above
T4 peptide: YCEGHLPEYIWKCL

Peptide-121 = target: T5, Peptide-121; experiment: as above
T5 peptide: YCEGHAPEYIAKCL

Peptide-120 = target: T6, Peptide-120; experiment: as above
T6 peptide: YCEGHLPEYIEKCL

Peptide-134 = target: T7, Peptide-134; experiment: as above
T7 peptide: YCEGHLPEYIQKCL

Peptide-79 = target: T8, Peptide-79; experiment: binding ELISA, biotinylated peptide on neutravidin plate, Fab titrated
T8 peptide: ACDTYFAGMINECF

Peptide-87 [2] = target: T2, Peptide-87; experiment: as above
Peptide-84 = target: T9, Peptide-84; experiment: as above
T9 peptide: YCAGHSPINIGKCL

Peptide-41 = target: T10, Peptide-41; experiment: as above
T10 peptide: MDWCPRDLWVHCFA

Peptide-92 = target: T11, Peptide-92; experiment: as above
T11 peptide: SCAAGASYAWPYCL

Off rate t½ (Peptide-126): 36 s
Off rate t½ (Peptide-87 [1]): 42 s
Off rate t½ (Peptide-127): 60 s
Off rate t½ (Peptide-135): 54 s
Off rate t½ (Peptide-121): 24 s
Off rate t½ (Peptide-120): 30 s
Off rate t½ (Peptide-134): 54 s
EC50 (Peptide-79): 97 nM
EC50 (Peptide-87 [2]): 49 nM
EC50 (Peptide-84): 337 nM
EC50 (Peptide-41): 490 nM
EC50 (Peptide-92): 54 nM
B1: anti-CD28 Fab (Fab, V domains shown)
VH: QVQLVQSGAEVKKPGASVKVSCKASGYTFTSYYIHWVRQAPGQGLEWIGSIYPGNVNTNYNEKFKDRATLTVDTSISTAYMELSRLRSDDTAVYFCTRSHYGLDWNFDVWGQGTTVTVSS
VL: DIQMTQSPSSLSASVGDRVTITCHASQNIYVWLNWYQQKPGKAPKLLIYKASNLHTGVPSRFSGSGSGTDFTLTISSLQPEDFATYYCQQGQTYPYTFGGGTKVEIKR
